This note sets out measurements from the nanobody polyreactivity screen of Harvey et al. (2022).

The series can be described thus: yeast display, Sf9 membrane polyspecificity reagent, FACS + sequencing; frameworks hold sequencing errors. The method, boiled down:
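Sorting gates, low and high (top ~1%), were placed on anti-HA fluorescence to track expression and on streptavidin fluorescence to track reagent binding. A clone's polyreactivity label is taken from the gate it came out of. The reagent was 10% biotinylated, detergent-solubilized Sf9 membrane, applied for 1 hour at 4 °C to galactose-induced yeast display cells.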
As for “QVQLVESGGGLVQAGGSLRLSCAASGRIFGTNAMGWYRQAPGKERELVAAINGSDSSTYYADSVKGRFTISRDNAKNTVYLQMNSLKPEDTAVYYCAADWDFFQQGANGAPYDYWGQGTQVTVSS”, the “polyreactivity (PSR sort gate)” value is listed as “low polyreactivity”.

With “QVQLVESGGGLVQAGGSLRLSCAASGRIFGTNARVWYRQAPGKERELVADITSGGSTNYADSVKGRFTISRDNAKNTVYLQMNSLKPEDTAVYYCAADVIGDLRWYRDEYWGQGTQVTVSS”, the “polyreactivity (PSR sort gate)” value is “low polyreactivity”.

Take “QVQLVESGGGLVQAGGSLRLSCAASGRIFGTYAMGWYRQAPGKERELFAAITLSDGSTYYADSVKGRFTISRDNAKNTVYLEMNTLKPEDTAVYYCAAVVDRFHPGLYEYWGQGTQVTVSS”: the “polyreactivity (PSR sort gate)” value is “low polyreactivity”. Regarding “QVQLVESGGGLVQAGGSLRLSCAASGRIFGTYAMGWYRQAPGKERELVAAISFRGGSTYYADTVNGRFTISRDNAKNTVYLQMNCLKPEDTAVYYCNARKRYSTDPGDYWGQGTQVTVSS”, the “polyreactivity (PSR sort gate)” value was “high polyreactivity”. Regarding “QVQLVESGGGLVQAGGSLRLSCAASGRIFGTYAMGWYRQAPGKERELVAAITSSGGRTYYADSVKGRFTISRDNAKNTVYLQMNRLKPEDTAVYYCAAYPWYRMWGQGTQVTVSS”, the “polyreactivity (PSR sort gate)” value was “high polyreactivity”. As to “QVQLVESGGGLVQAGGSLRLSCAASGRIFGTYAMGWYRQAPGKERELVDAISSSGTSTYYADSVKGRFTISRDNAKTTVYLQMNSLPPEDTAVYYCAVEAIDYAYAYYFRLGYDYWGQGTQVTVSS”, the “polyreactivity (PSR sort gate)” value is “low polyreactivity”. With “QVQLVESGGGLVQAGGSLRLSCAASGRIFGVNAMGGDRQAPGKERELVAVISSGGSTYYADSVKGRFTISRDNAKNTVYLQMNSLKPEDTAVYYCAAGYLPDYDYWGQGTQVTVSS”, the “polyreactivity (PSR sort gate)” value was “low polyreactivity”.

As to “QVQLVESGGGLVQAGGSLRLSCAASGRIFGVNAMGWYRQAPGKERELVAAINFSGGGTYYADSVKGRFTISRDNAKNTVYLQMTSLKPEDTAVYYCAADGPDYKWYYELDYWGQGTQVTVSS”, the “polyreactivity (PSR sort gate)” value was “low polyreactivity”.

“QVQLVESGGGLVQAGGSLRLSCAASGRIFGVNAMGWYRQAPGKERELVADISSGGSTYYADSVKGRFTISRDNAKNTVYLQMNSLKPEDTAVYYCAKAPRGRGLYDYWGQGTQVTVSS”: the “polyreactivity (PSR sort gate)” value was “low polyreactivity”. Regarding “QVQLVESGGGLVQAGGSLRLSCAASGRIFGVYAMGWYRQAPGKERELVAAIDRRGGRTYYADSVKGRFTISRDNAKNTVYLQMNSLKPEDTAVYYCATARYRAEMGYWGQGTQVTVSS”, the “polyreactivity (PSR sort gate)” value is listed as “high polyreactivity”.

With “QVQLVESGGGLVQAGGSLRLSCAASGRIFGVYAMGWYRQAPGKERELVAAIDRRGGTTYYADSVKGRFTISRDNAKNTVYLQMNSLKPEDTAVYYCAARSYPFIATYGYWGQGTQVTVSS”, the “polyreactivity (PSR sort gate)” value is listed as “high polyreactivity”. As for “QVQLVESGGGLVQAGGSLRLSCAASGRIFGVYAMGWYRQAPGKERELVADISWSGSGTYADSVKGRFTISRDNAKNTVYLQMNSLKPEDTAVYYCNVDPAQIHAGYVGYDYWGQGTQVTVSS”, the entry is “low polyreactivity”.

With “QVQLVESGGGLVQAGGSLRLSCAASGRIFGVYAMGWYRQAPGKERELVADISWSGSGTYADSVKGRFTISRDNAKNTVYLQMNSLKPEDTAVYYCNVDPAQIHSGYVGYDYWGQGTQVTVSS”, the “polyreactivity (PSR sort gate)” value is “low polyreactivity”. With “QVQLVESGGGLVQAGGSLRLSCAASGRIFGVYAMGWYRQSPGKERELVAPISRSGGRTYYADSVKGRFTISRDNAKNSDYLQMNSLKPEDTAVYYCNVVRWYYHPPLTGSRFDYWGQGTQVTVSS”, the “polyreactivity (PSR sort gate)” value is recorded as “high polyreactivity”.

Consider “QVQLVESGGGLVQAGGSLRLSCAASGRIFGVYVMGWYRQAPGKETELVAAISWSGSHTYYADSVKGRFTISRDNAKNTVYLQMNSLKPEDTAVYYCNADSYPDYTGPGLDWYDYWGQGTQVTVSS”, for which the “polyreactivity (PSR sort gate)” value was “low polyreactivity”.

“QVQLVESGGGLVQAGGSLRLSCAASGRIFGWYAMGWSRQAPGKERELGAAITTADSTYYADSVKGRFTISRDNAKNTVYLQMNSLKPEDTAVYYCAADAYWEYDYWGQGTQVTVSS”: the “polyreactivity (PSR sort gate)” value is on record as “low polyreactivity”.
